The source of these data is patent US12122830 (ABL BIO, dated 2024).

Experiment [1] concerns the target T1, recombinant mouse ROR1 protein (Acrobiosystems, RO1-M5221) (mouse, UniProt Q9Z139 30-406).
T1 construct: extracellular domain; Bought; also called mouse ROR1 antigen
As to the kind of experiment: ELISA, recombinant mouse ROR1 protein coated at 1 µg/ml, IgG titrated, HRP anti-Fab detection. The method, then:
The anti-ROR1 antibody-antigen binding affinity was estimated by using an ELISA-based solution binding test. Specifically, a 96-well microtiter plate (Nunc-Immuno Plates, NUNC) was coated with the ROR1 protein at a concentration of 1 µg/ml in a PBS solution as described below at 4° C. for 16 hours, and non-specific binding sites were blocked with 3% BSA (bovine serum albumin) for 2 hours. For this, as the ROR1 protein, in case of human ROR1, ROR1-Fc of Example 1 or recombinant ROR1-His (Sino Biological, 13968-H08H) was used. The ROR1-His used for ELISA was a protein of sino biological company (13968-H08H) as described in the above sentence, and ROR1-His of Example 1 or recombinant mouse ROR1 protein was used (Acrobiosystems, RO1-M5221-100 µg).
Then, after adding the anti-ROR1 antibody prepared in Example 3 at the concentration described in FIG. 2 into the microtiter plate on a 96-well microtiter plate, the binding capacity was analyzed with ELISA as follows. Specifically, after constant temperature treatment for 2 hours, the plate was washed with PBS comprising 0.05% tween 20 5 times, and then a HRP-conjugated Fab multiclonal antibody reagent (Pierce, 31414) was diluted at 1:10,000 ratio, and was put into the washed microtiter plate, and it was incubated at 37° C. for 1 hour, and the ROR1 antibody bound to the plate was detected. After reaction, it was color-developed by using TMB (Tetramethylbenzidine, Sigma, T0440). The enzymatic reaction was stopped by 0.5 mol/L of sulfuric acid, and the absorbances at 450 nm and 650 nm were measured by using a micro plate reader device (molecular device) (450 nm-650 nm).

Experiment [2] addresses T2, mouse ROR1 expressed on the cell surface (CHO-mouse ROR1) (mouse, UniProt Q9Z139 30-937).
T2 construct: whole, on cells; Temporarily transfected CHO cells
As to the kind of experiment: flow cytometry on CHO cells transiently overexpressing mouse ROR1, FITC anti-human Fc detection, MFI ratio to 2nd Ab. The method, then:
For this experiment, the degree of binding of the anti-ROR1 antibody and ROR1 was measured by using FACSCalibur (BD Biosciences) device with the cell lines as follows, the cell lines artificially overexpressing the ROR1 protein by transfecting an ROR1 gene temporarily (CHO-human ROR1, CHO-human ROR2, CHO-mouse ROR1) or stably (MC38-human ROR1) (FIG. 5 and FIG. 7, respectively) or the cell lines expressing ROR1 (JeKo-1, Mino) (FIG. 6) or a cell line not expressing ROR1 (MCF7) (FIG. 6). […] JeKo-1, Mino, CHO-human ROR1, CHO-mouse ROR1 and MC38-human ROR1 are all cell lines expressing human ROR1 or mouse ROR1.
Specifically, after disassociating each cell line and washing in PBS, the number of cells was counted and set as 2×10^5 cells/200 µl PBS, and then each ROR1 monoclonal antibody in Example 3 was prepared in 10 µg/mL or as 5 fold-diluted from 10 µg/mL, and was reacted at 4° C. for 1 hour. After reaction, cells were washed in PBS and then the FITC-labeled constant region (Fc)-specific antibody (Goat anti-human IgG FITC conjugate, Fc specific, Sigma, F9512, concentration: 2.0 mg/ml) was suspended in 2 µl/1×10^5 cells/200 µl PBS, and it was reacted at 4° C. for 1 hours. The confirmation of expression degree of human ROR1, human ROR2 and mouse ROR1 that were temporarily overexpressed was analyzed by using a commercially available antibody for FACS analysis (anti-ROR1: R&D Systems, FAB2000G, anti-ROR2: R&D, FAB20641P). After reaction, cells were washed in PBS and decoded by using a FACSCalibur device. The negative control group (2nd Ab) was treated only with the FITC-labeled constant region (Fc)-specific antibody. The result for the peak shift in the experimental group treated with each ROR1 monoclonal antibody was compared to the result for the shift in the control group (Mean Fluorescence Intensity Ratio, MFI Ratio: MFI of anti-ROR1/MFI of 2nd Ab).

T2 sequence (Q9Z139 30-937): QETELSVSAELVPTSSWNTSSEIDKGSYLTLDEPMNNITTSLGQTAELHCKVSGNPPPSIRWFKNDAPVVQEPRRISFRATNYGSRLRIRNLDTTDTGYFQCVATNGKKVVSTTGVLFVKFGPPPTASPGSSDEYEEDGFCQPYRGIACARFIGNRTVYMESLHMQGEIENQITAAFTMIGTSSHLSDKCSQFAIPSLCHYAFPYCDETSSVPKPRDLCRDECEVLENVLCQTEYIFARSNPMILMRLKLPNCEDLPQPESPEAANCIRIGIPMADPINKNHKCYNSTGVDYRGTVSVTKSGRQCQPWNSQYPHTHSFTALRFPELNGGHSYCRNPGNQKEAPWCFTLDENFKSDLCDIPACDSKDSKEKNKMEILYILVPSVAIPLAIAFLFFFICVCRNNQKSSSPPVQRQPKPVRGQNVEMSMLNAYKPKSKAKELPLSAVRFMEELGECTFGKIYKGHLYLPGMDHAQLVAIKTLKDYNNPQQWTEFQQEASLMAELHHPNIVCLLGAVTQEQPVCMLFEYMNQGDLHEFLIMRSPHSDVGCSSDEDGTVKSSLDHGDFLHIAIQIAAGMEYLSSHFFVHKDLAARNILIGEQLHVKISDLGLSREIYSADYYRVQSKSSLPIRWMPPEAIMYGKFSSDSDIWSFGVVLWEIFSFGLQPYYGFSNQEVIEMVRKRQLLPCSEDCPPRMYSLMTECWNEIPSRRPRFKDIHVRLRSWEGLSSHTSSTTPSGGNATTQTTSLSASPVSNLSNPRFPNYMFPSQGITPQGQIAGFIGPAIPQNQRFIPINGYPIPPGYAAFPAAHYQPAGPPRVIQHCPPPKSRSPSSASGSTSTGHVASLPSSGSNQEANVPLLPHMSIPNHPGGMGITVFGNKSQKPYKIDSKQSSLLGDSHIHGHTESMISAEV
T1 sequence (Q9Z139 30-406): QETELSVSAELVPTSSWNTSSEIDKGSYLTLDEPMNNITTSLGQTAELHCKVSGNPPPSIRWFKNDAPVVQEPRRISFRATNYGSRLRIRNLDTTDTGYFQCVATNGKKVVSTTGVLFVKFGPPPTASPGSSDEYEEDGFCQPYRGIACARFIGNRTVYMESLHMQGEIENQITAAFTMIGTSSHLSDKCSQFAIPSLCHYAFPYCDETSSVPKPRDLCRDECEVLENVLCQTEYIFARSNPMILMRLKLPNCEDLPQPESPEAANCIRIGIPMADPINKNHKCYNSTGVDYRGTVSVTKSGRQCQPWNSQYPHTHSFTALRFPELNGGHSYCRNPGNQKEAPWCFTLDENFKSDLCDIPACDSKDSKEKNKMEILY

B1: A2F2 anti-ROR1 IgG antibody (antibody, V domains shown)
VH: EVQLLESGGGLVQPGGSLRLSCAASGFTFSDYYMSWVRQAPGKGLEWVSSISPDGSNTYYADSVKGRFTISRDNSKNTLYLQMNSLRAEDTAVYYCAKNLRAFDYWGQGTLVTVSS
VL: QSVLTQPPPASGTPGQRVTISCSGSSSNIGSNTVYWYQQLPGTAPKLLIYANSQRPSGVPDRFSGSKSGTSASLAISGLRSEDEADYYCGSWDYSLSGYVFGGGTKLTVLG
As to B1, the binding result in experiment [1] and in experiment [2] was “binds” each time.

B2: D2B12 anti-ROR1 IgG antibody (antibody, V domains shown)
VH: EVQLLESGGGLVQPGGSLRLSCAASGFTFSNYDMSWVRQAPGKGLEWVSSISPSSGSSIYYADSVKGRFTISRDNSKNTLYLQMNSLRAEDTAVYYCAKAPGWCQAPSCYYDNAMDVWGQGTLVTVSS
VL: QSVLTQPPSASGTPGQRVTISCSGSSSNIGNNDVSWYQQLPGTAPKLLIYDDSQRPSGVPDRFSGSKSGTSASLAISGLRSEDEADYYCGAWDDSLSGYVFGGGTKLTVLG
On to B2, for which the binding result in experiment [1] and in experiment [2] was “binds” in each case.

B3: A2F3 anti-ROR1 IgG antibody (antibody, V domains shown)
VH: EVQLLESGGGLVQPGGSLRLSCAASGFTFSSYDMSWVRQAPGKGLEWVSWISPGGGSKYYADSVKGRFTISRDNSKNTLYLQMNSLRAEDTAVYYCARVNGRFDYWGQGTLVTVSS
VL: QSVLTQPPSASGTPGQRVTISCSGSSSNIGNNNVSWYQQLPGTAPKLLIYADSHRPSGVPDRFSGSKSGTSASLAISGLRSEDEADYYCATWDYSLSGYVFGGGTKLTVLG
As to B3, the binding result in experiment [1] and in experiment [2] was “binds” each time.
